Earlier results as cited in article PMC7823800.
Where two headings read alike, the source gives them in different places.

Legend:
TNF (Homo sapiens) [1] = target: TNF (Homo sapiens) (UniProt P01375)
TNF (Homo sapiens) [2] = target: TNF (Homo sapiens) (UniProt P01375); remark: listed apart in the source

Sequence of TNF (Homo sapiens) (P01375 77-233): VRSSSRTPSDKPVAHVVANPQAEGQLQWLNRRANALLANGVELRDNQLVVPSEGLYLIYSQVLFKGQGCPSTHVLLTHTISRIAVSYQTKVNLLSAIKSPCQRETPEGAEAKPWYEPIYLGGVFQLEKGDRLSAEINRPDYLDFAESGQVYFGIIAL
Sequence of CrmB (P0DSV7 23-349): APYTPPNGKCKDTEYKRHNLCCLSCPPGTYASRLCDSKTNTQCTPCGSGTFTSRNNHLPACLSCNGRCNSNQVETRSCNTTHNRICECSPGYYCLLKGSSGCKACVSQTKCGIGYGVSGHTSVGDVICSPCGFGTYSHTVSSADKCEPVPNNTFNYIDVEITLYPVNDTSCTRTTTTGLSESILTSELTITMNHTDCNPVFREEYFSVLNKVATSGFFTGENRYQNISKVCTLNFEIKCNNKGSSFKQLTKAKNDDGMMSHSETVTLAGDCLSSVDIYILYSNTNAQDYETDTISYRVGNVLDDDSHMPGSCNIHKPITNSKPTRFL
Sequence of TNFR2 (P20333 23-461): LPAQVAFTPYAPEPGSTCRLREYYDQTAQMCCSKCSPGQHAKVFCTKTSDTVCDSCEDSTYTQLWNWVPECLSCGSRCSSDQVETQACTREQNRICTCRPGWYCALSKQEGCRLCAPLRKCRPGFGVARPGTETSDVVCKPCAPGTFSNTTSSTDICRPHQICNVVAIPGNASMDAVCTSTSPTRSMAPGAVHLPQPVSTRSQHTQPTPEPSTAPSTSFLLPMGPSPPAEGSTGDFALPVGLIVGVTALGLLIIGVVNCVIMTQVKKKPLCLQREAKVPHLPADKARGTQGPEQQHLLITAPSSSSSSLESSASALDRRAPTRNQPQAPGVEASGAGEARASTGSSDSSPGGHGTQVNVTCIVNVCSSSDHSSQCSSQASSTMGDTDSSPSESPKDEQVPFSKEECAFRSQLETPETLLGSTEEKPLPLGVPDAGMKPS

| Substance | Kd (TNF (Homo sapiens) [1]) [nM] | Kd (TNF (Homo sapiens) [2]) [nM] |
| --- | --- | --- |
| CrmB (from UniProt P0DSV7) | 0.28 | – |
| TNFR2 (from UniProt P20333) | – | 0.3 |
